assay: soluble on expression in E. coli; label from the status in PepcDB or PDB records

Sequence | soluble on expression in E. coli
MSLGQDIGFYLGRIDSEMDSWVADPDEALKASNKLFFLNPFQANKVGIKGKANSNPNTQLSGDTGEGKSFAAKLIHLYSSFLKVKTLYIDPKLEMEANYKRVLKEFEEQDVYPEIQKYIRSLSFATLDSTKNENLGVLDPLVFLPKKRAKGLIVSMIGELIKYDSHISFKTELSHQLSLFADRRARGEQVGTLTVLKELYNHSERQDVRDTAESLIEDIKDSILGLVFSDGKNQAVDLNARNVILGVSGLDLPQDDSIVHSDLTLQQRYSLVIMYALGEFVIQFAERDYKEHTLEIVDEAWFLETSAVGRGIFNRMKRLNRRFNNFLYFVSQEIDDSNRGKDEKTAFGSYFCFRNDDSTKVDSILRRLGVQPTEESRKWFDNLSLGQCLYRDSANRVERVTFDGLFPEVKELFKTVENDSLEGHHHHHH | soluble
MSLGQYDMQLIMGRTRWNGEFIGFERSTEKGVFSSNLKTEFMVELAESGGVGVFLNRRRVAALSLDGSRRALEAVLSCQKAFMTAQSDTRDEPSTDTKPKRHTKSSGTGFYVSDSGHIVTNHHVIAECSTINVLPPGGAAVSATLVAKDKTNDLAILKTASSPAAIPGLRSQMRLGEAVYVFGFPLTGILSTSGNFTAGAITATTGMEDDTRLAQISAPVQPGNSGGPLLDKYGNVIGVIVSKLNALNIAAATKDIPQNVNFAIKTGIATNFLDSSGVVPTGKVSTRELAPEAIADLAKIFTVQVLCNEGHHHHHH | not soluble
MSLGRQEMDEHVAIETPYAIALNDRVIGSSMVLPVDLEEFGAGFLFGQGYIKKAEEIREILVCPQGRISVYADVENEEPREVIITSGCGGTGKIPKEMLEGEFAPLADYCLPFAEIKSFIREALHSSPLGPQTHCVHGCGLWNNGRLQVYHEDVGRHNAVDKVLGSILLGRASNNSAVYTTGRLTSDMVLKCARIGIPIIMSRTSPSSLGLALAKRSGATLVAYSRPERINVFNAPERILTEGHHHHHH | not soluble
MSLGYAFPSILGNLMSKIYQMDAVDWLKTLENCSVDLFITDPPYESLEKYRQIGTTTRLKESKSSSNQWFSVFPNTRFEELFREVYRVLKKGSHFYLFCDQETMFLAKPIAESVGFKFWKPIVWDKCAIGMGYHYRARYEFILFFEKGKRKLNDLSVPDVLEYKRVWKGYPTEKPVELLEVLIRQSSSENEIVADSFFGSGSTLIAANNLSRKYIGCDISSSAHEYFKNRAEGHHHHHH | soluble
MSLHGEKAPFPLTLIHINDLHARFDETNQKSSTCTNSKECIAGIARVYHTIKQLKSEYKTKNPLYLNAGDNFQGTLWYNLLRWNVTAYFIKELPPDAMTLGNHEFDHSPKGLAPYLAELEKMKIPTVVANLEKNGEPALKDSKIARSIVLKVGNRKVGVIGALYDKTHLVAQTGMVTLTNSIEAVRKEAQELKKKNVNIIVVLSHCGLDGDKQLAEEAGDLIDVIVGAHSHSLLLNKDAKVPYDTKYDTIEGDYPLVVKKSNNHTVLITQARSFGKYVGRLTVNFDCEGEVQSWEGYPIYMNNSVKEGHHHHHH | soluble
MSLHGVPFGTVPPMGTIGLIAAMPDEIRPFLRLASPAARLHGGRFPIWRLRVGNDDIVLVESGMGIDRATAATDALVAAASPVAILSFGFGGAALPGLKVGDLAVGMTSWFAGTEGIVLRRGIDRNLAEKLAEELNRICNGVTRGEIITSARILKKGDLAHSLPNGISSPILDMETAAVAEAAHRRGIPIVALRAISDDAEEELSFSLDEFTDDDMAIRPRKVLATIARKPWIIPQLLRLARNSRIAGKRLAQGVLATAEFLSRGEGHHHHHH | not soluble
MSLHIIILSPVMPIWDRGVFCSSFTKLCLARGFHITLLDTLSLFPSHSAFCNNSTVEILPFITEKLKKYFKEPSVLVGFSMAGMLVQILAARLPNVQAVLAVNAPGYPDKPLKRQIGCILTFLKNKDLSGALEILNSFMCPRGGREKRVLWEIPDEQKSVAIERMTRGFTFLLGGDARDEIIKYTGKFLALIGEKSQLATLANQTKSQCLNHEYQVISGAGTRLWDDNPAMTNAIVHKWIDAL | not soluble
MSLHPVSISLSSYGADLVRSRGQASFLPLLAMAGAQRVELREELFAGPPDTEALTAAIQLQGLECVFSSPLELWREDGQLNPELEPTLRRAEACGAGWLKVSLGLLPEQPDLAALGRRLARHGLQLLVENDQTPQGGRIEVLERFFRLAERQQLDLAMTFDIGNWRWQEQAADEAALRLGRYVGYVHCKAVIRNRDGKLVAVPPSAADLQYWQRLLQHFPEGVARAIEYPLQGDDLLSLSRRHIAALARLGQPQEERQHG | soluble
MSLIAHSNEIARPIFKSQDQLFTLYQGDCNEVLPQFENQFDLIFADPPYFLSNDGLSIQSGKIVSVNKGDWDKEDGINGIDEFNYQWINNAKKALKDTGSLLISGTYHNIFSLGCVLQKLDFKILNLITWQKTNPPPNFSCRYLTHSAEQIIWARKSRKHKHVFNYEVLKKINNDKQMRDVWSFPAIAPWEKVNGKHPTQKPLALLVRLLLMASDENSLIGDPFSGSSTTGIAANLLKREFIGIEKESEFIKISMDRKIELDARYKEIRSKIKDLNHQEGHHHHHH | not soluble
MSLIIMKAITVLSGGLDSTVVTLIAKDLGYEVTAITFNYGQRAAKREINSAKKICEILGIEHIVVDLPFVKQFGKSSLITEKEIPTLKMEELDSEKAYETMKAVWVPARNVIMFGIASGFAEALDAEKIFIGINKEEGVTFPDNTIEFVEAFNKVLEYGTLNKVKIEAPLYDKTKEEIVKLGAELEKKLGVEVLKYSYSCYHDNGEDFLHCGKCESCMRRKRAFLMAGVEDKTKYIEEGHHHHHH | soluble
MSLIKDIRTYKLCYEGINDERDALAIKGLAEHPMEIVATEIETSDGYVGYGESLAYGCSDAVQVTIEKILKPLLLKEDEELIEYLWDKMYKATLRFGRRGIAIAGISGVDTALWDIMGKKAKKPIYKLLGGSKRKVRAYITGGYYSEKKDLEKLRDEEAYYVKMGFKGIKVKIGAKSMEEDIERLKAIREVVGEDVKIAVDANNVYTFEEALEMGRRLEKLGIWFFEEPIQTDYLDLSARLAEELEVPIAGYETAYTRWEFYEIMRKRAVDIVQTDVMWTGGISEMMKIGNMAKVMGYPLIPHYSAGGISLIGNLHVAAALNSPWIEMHLRKNDLRDKIFKESIEIDNGHLVVPDRPGLGYTIRDGVFEEYKCKSEGHHHHHH | soluble
MSLIKMQVWKKLFAKSPFKPLIRHAEVVVQTVETLEKALDSWARGDYENMKEYAKKVDDLEDIADKIKSELRDSITSKLLMPVQRTDILEYLHMQDKIADAAEDTAKWLLIKRNLDSIPNDIKDIILKMGKESIKAAKLVYEAIKQLDNVLESGFAEKEIKKEYKIIKQIEEVESKIDGLDSKLMEIVFTSELDWKDGLYILNIARTLSNISDKAKDTAERIRVLMNKEGHHHHHH | not soluble
MSLILASLVRYYRRLATETDETGNPKVPSYGFSEEKIGWILVLDKEGRLKTVVPNLTADKKPQPKLMSVPRPEKRTSGIKPNFLWDKTAYALGVEANKNKAEAKEKPFTPSEKTFEAFKQYHLDLLQNSEDEGLQALCRFLQNWQPAHFAAENLPAEMLDSNTAFSLEKPTALIHKREAAQTLWAGCLKSDEALESLCLISGDTAPIARLHPAIKGVFGGQSSGGSIISFNKEAFSSFGKEQGANAPVSEQSAFAYTTALNYLLRRENNHCLTIGDASTVFWAEADDIVDEGHHHHHH | not soluble
MSLILIKNVSYYIDNNLNVHENCDILIEKVENSEIKLTTGKNLLEKLNLNQNDLKIISGEKKCAIPGLYNAHTHVPMTLLRGIADDMILQDWLNQKIWPNEAKLNKNDVYYGSLLGCLEMLRFGVTSFNEMYFFSEEILKATKEIGLNAQVSYPIIDFGTPEEQSIDKLLTSAESFVKNNVGEKNIKVGIAPHAPYTCSEETYQKCSEISNDYNVNMHTHVSETRYEVVELENKIGMRPVEYLEKIGVLNEKLHAAHCVWITKDEAKKLAKNNAKVLHCPTSNMKLASGGVMPLFELLEYGADISVGTDGPASNNNLDILKEMKMTSLLHKAHRWDPTVAGIDTVLKMGINSESIEIKNNDIILIDLDSAHLRPFNNIKSNIVYSAFGNDVDTVIVGGNILLENKKYKFSETFISNIYKNIQKITEKFEEGHHHHHH | not soluble
MSLINDLRTVPAALDRLVRQLPDHTALIAEDRRFTSTELRDAVYGAAAALIALGVEPADRVAIWSPNTWHWVVACLAIHHAGAAVVPLNTRYTATEATDILDRAGAPVLFAAGLFLGADRAAGLDRAALPALRHVVRVPVEADDGTWDEFIATGAGALDAVAARAAAVAPQDVSDILFTSGTTGRSKGVLCAHRQSLSASASWAANGKITSDDRYLCINPFFHNFGYKAGILACLQTGATLIPHVTFDPLHALRAIERHRITVLPGPPTIYQSLLDHPARKDFDLSSLRFAVTGAATVPVVLVERMQSELDIDIVLTAYGLTEANGMGTMCRPEDDAVTVATTCGRPFADFELRIADDGEVLLRGPNVMVGYLDDTEATAAAIDADGWLHTGDIGAVDQAGNLRITDRLKDMYICGGFNVYPAEVEQVLARMDGVADAAVIGVPDQRLGEVGRAFVVARPGTGLDEASVIAYTREHLANFKTPRSVRFVDVLPRNAAGKVSKPQLRELGEGHHHHHH | not soluble
MSLINFGIIGAGNIANRFADSLSHFKDANLYAVACRGIEKAAAFQRKHPCQLIYDDYDELLSNKDIDIVYIAVPHGFHYLWISKALKKGKAVLCEKPATLNAEQMKSVQKLAEAKNIFFMEAMKSRFTPAYQEIKTIINNGEIGKIISIDSSFCREISKKTATYHFQPIQGGCLLDIGIYNVALTEDFAKTLPKVEVLENKMDISGVESYTKAKLLFPNLSATIECAFDRNKQTEATIKGEKGQIEIKNFHRAESFIVKTSSGTKNYHIAYEQDDFHGEIAHVIQCYGKNKTESNNMPISDSVNCALIIEKIKNQIPELAEGHHHHHH | soluble
MSLINLDVWIDLTNAPHVHYFCQLIKKFEKEGIEYLLTFRDSGNLAKLVEIYNFVGKCIGKHGNTLKDKLIFYAERVIGLTELISNVKPKVAIAKHSVELPRVAFGLNIPVIFVVDNEHAEAQNKLTLPLADEIIKPIATDENKLKEFGGRNFISFEGTCEVANVNSRLKGYYPIDNEILKKLGICDDNPTIVMRPCPNSSYCNGHKDILPKIIEKLQKRIDCNIVVFPRDEHQKEIYREVNAIVPKETIDALSLLYNSDFMIGAGGTMNRESAILGIPTVSCYPQELLGVDKYLIEKDRMIHTNDIKEIINYVEDNLGKRMGVIELEDPTDLMFERVCNYLKEGHHHHHH | soluble
MSLINRFSVPLLETSTIDLANVASNKIEPETVLTNARILSTYSDRILKDKELWIFKGRIACIKPSGSYKEFFQMDKSKIYEVNNNILAPGLIDPHMHIESSMMTGCAYAEAALLNGTTTIFCDSHEIGNVCDTDGIEWMLQDCRESPISIFLTLPSTIPATNKYLETAGGDLTDKKTAILFDKWPEIKGLGEKMDFVSVCEGNERSHSIISETLKRNLPVSGHVFGREFVAAYAASGITDTHEAEDKLFTNDLLDAGLWIFLRGGNPKTPWNSIKEAIKVITESEASTKRICVCTDDRDADDLFNFGLDWVVRQANTLGINNTTAWSMGSLHPATRFNIDRDYGALGHSRRADIVMINDNLEVLNTWLGGHLAVENKKITSLIDKQLSENRYQYPKRAYNTVILPKKINFIPDMPKESEFKINVIKTELPGIMTFKETIHIKEGHHHHHH | soluble
MSLIPKFRAWDTYEKEMLENVTPLFDDSNSMIAIITDFQIKGSPGTSEIEIGSYDTTFNWDEFPYVIMQSTGLKDKNGVEIFEGDILVYDAPKKYAHRRSMHEIAYADGRFFWEFLDLVFCQSNILYRDGYLVIGNIHENPELLEGNEGHHHHHH | soluble
MSLIQIENQTVSGIPFLHIVKEENRHRAVPLVIFIHGFTSAKEHNLHIAYLLAEKGFRAVLPEALHHGERGEEMAVEELAGHFWDIVLNEIEEIGVLKNHFEKEGLIDGGRIGLAGTSMGGITTLGALTAYDWIKAGVSLMGSPNYVELFQQQIDHIQSQGIEIDVPEEKVQQLMKRLELRDLSLQPEKLQQRPLLFWHGAKDKVVPYAPTRKFYDTIKSHYSEQPERLQFIGDENADHKVPRAAVLKTIEWFETYLEGGSHHHHHH | soluble

Source: the DeepSol protein solubility set
